In article PMC8844822, “SARM1 is a multi-functional NAD(P)ase with prominent base exchange activity, all regulated bymultiple physiologically relevant NAD metabolites” (iScience, 2022):

What was measured:
[1] = substrate: NC(=O)c1ccc[n+]([C@@H]2O[C@H](COP(=O)([O-])OP(=O)(O)OC[C@H]3O[C@@H](n4cnc5c(N)ncnc54)[C@H](O)[C@@H]3O)[C@@H](O)[C@H]2O)c1; assay: purified protein, by the assay type; details: other: Aplysia cyclase, substrate as labelled, pH 7.5
Experimental: hSARM1 species were routinely assayed by the NAD/NADH-Glo^TM Assay (Promega) while both Aplysia cyclase and CD38 were assayed by fluorometry using ϵNAD ([Orsomando et al., 2000]). […] Other reagents used in addition to, or in place of those above are detailed in text or in figure legends, for example metal ions, free bases, dinucleotide analogues, mononucleotides, and ribosides. Assays were all carried out at 25°C except for temperature studies. Reactions were stopped by HClO4/K2CO3 and analysed by C18-HPLC as reported ([Mori et al., 2014]). Only the acid labile NADH and NADPH were treated with 1 N NaOH and neutralized using 1:1 vol of 1.73 M KH2CO3 while the highly hydrophobic metabolites vacor, VAD, VMN and VR, were analysed by a modified C18-HPLC method ([Buonvicino et al., 2018]). Reaction products were quantified from peak areas (see Figure 2A) based on coelution with standards (except for cyclic products from NAD analogues that were not available and were attributed based on UV-spectra and retention times as predicted). Rates were calculated as follows. Hydrolysis and cyclization were measured from product generation from the respective individual dinucleotide substrate used, e.g., free and cyclic ADP-ribosyl moieties from NAD (Figure 1B). A basal value for hydrolysis/cyclization was taken as sum of these latter two products. […]

[2] = substrate: NC(=O)c1ccc[n+]([C@@H]2O[C@H](COP(=O)([O-])OP(=O)(O)OC[C@H]3O[C@@H](n4cnc5c(N)ncnc54)[C@H](O)[C@@H]3O)[C@@H](O)[C@H]2O)c1; assay: purified protein, by the assay type; type: biochemical; details: other: hSARM1 SAM-TIR, pH 7.5
Experimental: (§1) hSARM1 species were routinely assayed by the NAD/NADH-Glo^TM Assay (Promega) while both Aplysia cyclase and CD38 were assayed by fluorometry using ϵNAD ([Orsomando et al., 2000]). […] Other reagents used in addition to, or in place of those above are detailed in text or in figure legends, for example metal ions, free bases, dinucleotide analogues, mononucleotides, and ribosides. Assays were all carried out at 25°C except for temperature studies. Reactions were stopped by HClO4/K2CO3 and analysed by C18-HPLC as reported ([Mori et al., 2014]). Only the acid labile NADH and NADPH were treated with 1 N NaOH and neutralized using 1:1 vol of 1.73 M KH2CO3 while the highly hydrophobic metabolites vacor, VAD, VMN and VR, were analysed by a modified C18-HPLC method ([Buonvicino et al., 2018]). Reaction products were quantified from peak areas (see Figure 2A) based on coelution with standards (except for cyclic products from NAD analogues that were not available and were attributed based on UV-spectra and retention times as predicted). Rates were calculated as follows. Hydrolysis and cyclization were measured from product generation from the respective individual dinucleotide substrate used, e.g., free and cyclic ADP-ribosyl moieties from NAD (Figure 1B). A basal value for hydrolysis/cyclization was taken as sum of these latter two products. In addition to that value, base exchange or transglycosidation was calculated from the expected dinucleotide analog formed in the presence of the corresponding free base, e.g., AcPyrAD from AcPyr and NAD.
(§2) The kinetic parameters were calculated from initial rates obtained from replicates via best-fitting analysis using the following Equation 1 for CD38 and Aplysia cyclase, or Equation 2 for hSARM1 SAM-TIR, or Equation 3 for hSARM1 full length(Equation 1) V =Vmax[S]/Km+[S]

[3] = substrate: NC(=O)c1ccc[n+]([C@@H]2O[C@H](COP(=O)([O-])OP(=O)(O)OC[C@H]3O[C@@H](n4cnc5c(N)ncnc54)[C@H](O)[C@@H]3O)[C@@H](O)[C@H]2O)c1; assay: NAD(P)ase activity by HPLC (kinetics, substrates, metal ions); type: biochemical, human; details: other: hSARM1 full length
Experimental: as §1, §2

[4] = re-elaborated from Table 1, pH 7.5

B1: Aplysia californica ADP ribosyl cyclase (Aplysia californica) (protein)
chain: IVPTRELENVFLGRCKDYEITRYLDILPRVRSDCSALWKDFFKAFSFKNPCDLDLGSYKDFFTSAQQQLPKNKVMFWSGVYDEAHDYANTGRKYITLEDTLPGYMLNSLVWCGQRANPGFNEKVCPDFKTCPVQARESFWGMASSSYAHSAEGEVTYMVDGSNPKVPAYRPDSFFGKYELPNLTNKVTRVKVIVLHRLGEKIIEKCGAGSLLDLEKLVKAKHFAFDCVENPRAVLFLLCSDNPNARECRLAKRFYRIA
[1]
  Km: 212 ± 13.7 µM
  Vmax: 51.4 ± 1.24 µmol/min/mg

B2: hSARM1 SAM-TIR (Homo sapiens) (protein)
chain: VPSWKEAEVQTWLQQIGFSKYCESFREQQVDGDLLLRLTEEELQTDLGMKSGITRKRFFRELTELKTFANYSTCDRSNLADWLGSLDPRFRQYTYGLVSCGLDRSLLHRVSEQQLLEDCGIHLGVHRARILTAAREMLHSPLPCTGGKPSGDTPDVFISYRRNSGSQLASLLKVHLQLHGFSVFIDVEKLEAGKFEDKLIQSVMGARNFVLVLSPGALDKCMQDHDCKDWVHKEIVTALSCGKNIVPIIDGFEWPEPQVLPEDMQAVLTFNGIKWSHEYQEATIEKIIRFLQGRSSRDSSAGSDTSLEGAAPMGPT
notes: made in house
[2]
  Km: 69.5 ± 2.31 µM
  Vmax: 0.723 µmol/min/mg
  kcat: 0.448 ± 0.009 s⁻¹
  kcat/Km: 6500 ± 350 M⁻¹ s⁻¹

B3: human SARM1 full length (Homo sapiens) (protein)
chain: LAVPGPDGGGGTGPWWAAGGRGPREVSPGAGTEVQDALERALPELQQALSALKQAGGARAVGAGLAEVFQLVEEAWLLPAVGREVAQGLCDAIRLDGGLDLLLRLLQAPELETRVQAARLLEQILVAENRDRVARIGLGVILNLAKEREPVELARSVAGILEHMFKHSEETCQRLVAAGGLDAVLYWCRRTDPALLRHCALALGNCALHGGQAVQRRMVEKRAAEWLFPLAFSKEDELLRLHACLAVAVLATNKEVEREVERSGTLALVEPLVASLDPGRFARCLVDASDTSQGRGPDDLQRLVPLLDSNRLEAQCIGAFYLCAEAAIKSLQGKTKVFSDIGAIQSLKRLVSYSTNGTKSALAKRALRLLGEEVPRPILPSVPSWKEAEVQTWLQQIGFSKYCESFREQQVDGDLLLRLTEEELQTDLGMKSGITRKRFFRELTELKTFANYSTCDRSNLADWLGSLDPRFRQYTYGLVSCGLDRSLLHRVSEQQLLEDCGIHLGVHRARILTAAREMLHSPLPCTGGKPSGDTPDVFISYRRNSGSQLASLLKVHLQLHGFSVFIDVEKLEAGKFEDKLIQSVMGARNFVLVLSPGALDKCMQDHDCKDWVHKEIVTALSCGKNIVPIIDGFEWPEPQVLPEDMQAVLTFNGIKWSHEYQEATIEKIIRFLQGRSSRDSSAGSDTSLEGAAPMGPT
notes: Human recombinant SARM1 full length proteins (wild-type and E642A mutant); made in house
[3]; no NMN, pH 7.5
  Km: 30.3 ± 5.18 µM
  Vmax: 0.0224 µmol/min/mg
[3]; [4]
  kcat: 0.03 ± 0.007 s⁻¹
  kcat/Km: 1000 ± 350 M⁻¹ s⁻¹
